From the Human Domainome abundance scans (Beltran et al. 2025)
± gives the uncertainty stated by the source.

B1: Homeobox protein cut-like 1, residues 941 to 1008; numbered along this chain, P39880 (parent)
chain: QEVDTIELTRQVKEKLAKNGICQRIFGEKVLGLSQGSVSDMLSRPKPWSKLTQKGREPFIRMQLWLNG

Variants of: B1
Assay: abundance fitness (aPCA) (normalised: wild type 0, dead -1); higher = more abundant; growth selection in yeast, the domain comes from the species named
Conditions: Homo sapiens

Row | Variant | abundance fitness
1 | L31H | -0.313 ± 0.1
2 | L31I | -0.278 ± 0.078
3 | L31F | -0.11 ± 0.091
4 | F59N | -1.2 ± 0.24
5 | F59C | -0.817 ± 0.23
6 | F59P | -0.833 ± 0.11
7 | F59M | -0.568 ± 0.071
8 | F59I | -0.525 ± 0.085
9 | W65T | -1.31 ± 0.17
10 | W65D | -0.994 ± 0.15
11 | R56S | -0.598 ± 0.076
12 | G27C | -0.019 ± 0.074
13 | G27E | -0.131 ± 0.068
14 | G27Q | -0.314 ± 0.087
15 | A17I | -0.022 ± 0.1
16 | A17E | -0.066 ± 0.073
17 | A17Y | -0.214 ± 0.12
18 | A17K | 0.033 ± 0.091
19 | A17D | 0.014 ± 0.098
20 | A17R | -0.011 ± 0.052
21 | A17C | -0.154 ± 0.089
22 | I21L | -0.08 ± 0.046
23 | I21F | -0.115 ± 0.11
24 | I21R | -0.402 ± 0.044

Row | Variant | abundance fitness
25 | I21M | -0.1 ± 0.069
26 | I21T | -0.197 ± 0.063
27 | I21N | -0.283 ± 0.15
28 | L42T | -0.424 ± 0.069
29 | L33M | -0.045 ± 0.068
30 | L33A | -0.079 ± 0.06
31 | L33V | 0.025 ± 0.046
32 | E28K | -0.106 ± 0.076
33 | E28T | -0.041 ± 0.067
34 | G68C | -0.258 ± 0.08
35 | G68W | -0.624 ± 0.091
36 | G68Q | -0.212 ± 0.23
37 | G68T | -0.402 ± 0.15
38 | L16T | 0.023 ± 0.077
39 | L16F | -0.257 ± 0.095
40 | L16W | -0.194 ± 0.07
41 | L16Q | -0.102 ± 0.074
42 | L16A | -0.188 ± 0.067
43 | Q1S | 0.045 ± 0.076
44 | Q1G | 0.06 ± 0.086
45 | Q1F | -0.088 ± 0.2
46 | P58Y | -0.1 ± 0.083
47 | P58Q | -0.036 ± 0.074
48 | K46F | -0.227 ± 0.13

Row | Variant | abundance fitness
49 | K46I | -0.184 ± 0.11
50 | K46M | -0.15 ± 0.059
51 | K46S | 0.009 ± 0.058
52 | K46C | -0.369 ± 0.13
53 | I6W | -0.368 ± 0.074
54 | I6T | -0.029 ± 0.062
55 | I6K | 0.089 ± 0.068
56 | I6D | -0.268 ± 0.13
57 | I6Y | -0.129 ± 0.081
58 | S34K | 0.017 ± 0.068
59 | R61H | -0.393 ± 0.094
60 | R61E | -0.479 ± 0.086
61 | R61N | -0.041 ± 0.11
62 | R61Y | -0.365 ± 0.11
63 | R61A | -0.183 ± 0.061
64 | R61I | -0.706 ± 0.11
65 | S49P | -0.231 ± 0.066
66 | S49R | -0.011 ± 0.052
67 | S49D | -0.241 ± 0.096
68 | S49M | -0.346 ± 0.069
69 | M41W | 0.022 ± 0.064
70 | M41P | -0.289 ± 0.071
71 | M41L | 0.027 ± 0.048
72 | I25G | -0.225 ± 0.049

Row | Variant | abundance fitness
73 | I25T | 0.083 ± 0.08
74 | I25L | -0.09 ± 0.052
75 | I25C | -0.283 ± 0.1
76 | I25F | 0.07 ± 0.089
77 | P45G | -0.309 ± 0.07
78 | K18G | -0.226 ± 0.056
79 | K18R | -0.139 ± 0.048
80 | K18N | -0.051 ± 0.12
81 | C22N | -0.192 ± 0.11
82 | C22E | -0.155 ± 0.073
83 | C22G | -0.27 ± 0.053
84 | C22F | -0.133 ± 0.1
85 | C22T | 0.02 ± 0.062
86 | V38Y | 0.027 ± 0.11
87 | V38A | -0.215 ± 0.075
88 | E57W | -0.148 ± 0.081
89 | E57A | -0.046 ± 0.074
90 | E57L | -0.194 ± 0.042
91 | E57V | -0.192 ± 0.073
92 | E57T | -0.15 ± 0.07
93 | R44F | -0.041 ± 0.09
94 | R44P | -0.314 ± 0.072
95 | R44Q | -0.241 ± 0.085
96 | E2Y | -0.329 ± 0.03

Row | Variant | abundance fitness
97 | E2A | -0.273 ± 0.027
98 | E2V | -0.16 ± 0.026
99 | W48H | -1.11 ± 0.16
100 | W48T | -1.1 ± 0.13
101 | W48A | -0.904 ± 0.089
102 | T52S | 0.085 ± 0.069
103 | T52A | -0.033 ± 0.065
104 | T52K | -0.109 ± 0.1
105 | T52Y | -0.143 ± 0.13
106 | T52F | -0.187 ± 0.12
107 | R10K | 0.074 ± 0.073
108 | R10Y | -0.306 ± 0.11
109 | R10C | -0.22 ± 0.083
110 | R10N | 0.036 ± 0.097
111 | R10F | -0.307 ± 0.098
112 | R10Q | -0.135 ± 0.068
113 | V30Y | -0.038 ± 0.25
114 | V30F | -0.657 ± 0.29
115 | S37Y | -0.173 ± 0.08
116 | T9E | -0.191 ± 0.089
117 | T9K | -0.109 ± 0.079
118 | G32E | -0.411 ± 0.11
119 | G32P | -0.21 ± 0.083
120 | G32D | -0.311 ± 0.076

Row | Variant | abundance fitness
121 | G32S | -0.195 ± 0.054
122 | G32V | -0.645 ± 0.076
123 | G36T | 0.003 ± 0.066
124 | G36S | -0.02 ± 0.053
125 | G36F | -0.026 ± 0.076
126 | G36E | 0.107 ± 0.084
127 | S39P | -0.126 ± 0.069
128 | S39D | -0.04 ± 0.098
129 | S39Y | -0.094 ± 0.11
130 | S39A | 0.005 ± 0.056
131 | L51M | -0.125 ± 0.095
132 | L51W | -0.08 ± 0.05
133 | L51R | -0.93 ± 0.063
134 | Q23S | -0.029 ± 0.066
135 | Q23L | -0.038 ± 0.051
136 | Q23I | -0.537 ± 0.26
137 | Q23E | -0.068 ± 0.09
138 | Q23G | -0.28 ± 0.068
139 | Q23H | -0.117 ± 0.13
140 | S43N | 0.066 ± 0.1
141 | S43H | 0.049 ± 0.1
142 | S43P | -0.304 ± 0.072
143 | S43Y | -0.174 ± 0.083
144 | D40R | -0.514 ± 0.078

Row | Variant | abundance fitness
145 | K29Y | -0.492 ± 0.095
146 | K29M | -0.254 ± 0.078
147 | L66M | -0.244 ± 0.073
148 | L66G | -0.884 ± 0.09
149 | L66D | -1.21 ± 0.33
150 | L66W | -0.35 ± 0.068
151 | L66P | -0.959 ± 0.091
152 | F26E | -0.883 ± 0.093
153 | F26W | 0.03 ± 0.067
154 | N19G | -0.087 ± 0.052
155 | N19D | 0.17 ± 0.086
156 | N19A | -0.033 ± 0.053
157 | N19M | 0.017 ± 0.078
158 | K15Y | 0.145 ± 0.096
159 | K15S | -0.221 ± 0.065
160 | K15V | -0.228 ± 0.074
161 | K15N | -0.012 ± 0.11
162 | K15G | -0.366 ± 0.077
163 | Q11I | -0.308 ± 0.099
164 | Q11N | -0.234 ± 0.095
165 | Q11S | -0.152 ± 0.047
166 | Q11H | -0.114 ± 0.086
167 | K50M | -0.012 ± 0.07
